These results are taken from US5714144A, “Human tissue-type plasminogen activator variant” (Genentech, Inc., priority 1995, dated 1998).

The conditions of data set [1]: removal of sialic acid or chemical modification of carbohydrate; cited from earlier work.
For data set [2] the following is noted: rabbits; cited from earlier work.
The conditions of data set [3]: humans; cited from earlier work.
A short description of data set [4]: Pharmacokinetics of 125I labeled rt-PA in rabbits, trichloroacetic acid (TCA) precipitable radioactivity, i.v. bolus. Type of data set: in vivo. The text has this: Arginine, 0.2M, and citrate, 0.1M, (pH 6.0) and Tween 80, 0.01 percent, was the buffer used at all times. All samples were dialyzed into this buffer prior to iodination. pH was adjusted to 8.2 with Tris base prior to iodination. The iodination mixture was passed across a PD-10 column (Pharmacia) equilibrated with pH 6.0 buffer, the radioactive fractions from the void volume were pooled, SDS-PAGE was run and the dried gel was autoradiographed.
(§1) The unlabeled human tissue-type plasminogen activator was used as a carrier for the trace amount of labeled human tissue-type plasminogen activator in order to achieve therapeutic levels and to avoid alterations in the pharmacokinetics that could arise from concentration dependence in the clearance pathways. Serial arterial blood samples were collected over a 26 minute period and placed immediately into tubes containing a lyophilized mixture of D-phe-pro-arg-[…] (PPACK) and EDTA at final concentrations of 1 μM and 4.8 mM, respectively. The tubes were placed on ice and plasma was separated. Trichloroacetic acid (TGA) precipitable (intact human tissue-type plasminogen activator) and total radioactivity were measured in each plasma sample.
(§2) The following exponential equation was used: Cp=Ae^-αt +Be^-βt, where Cp is the concentration of rt-PA in the plasma at any time, t and A and B are the y intercepts of the fast and slow clearance phases which have slopes of α and β, respectively. The t1/2 for the α and β phases were calculated as the ratio: 1n2/slope. The results from the curve stripping procedure were used as initial approximations to fit the data to a biexponential model using PC NONLIN. One data set (FIG. 4) could not be fit using PC NONLIN so the data from the curve stripping procedure were used. Co, the plasma concentration at zero time, was the sum of A and B. Vo was calculated as dose divided by Co. Area under the curve (AUC) was determined by formula AUC=A/α+B/β. […] AUC was then used to calculate the clearance using the formula, Clearance=Dose/AUC. The relative contributions of the alpha and beta phases were calculated from the following formulas: [formula]
(§3) Two types of data were generated from in vivo clearance studies in rabbits. One is from the immunoreactive human tissue-type plasminogen activator which should be a measure of the clearance of the unlabeled material. […] The curves of plasma concentration versus time from the immunoreactivity and the TGA precipitable counts were fit to the appropriate multiexponential models and the derived pharmacokinetic parameters were compared.
The remaining modified forms of rt-PA were not available in quantities which would allow the pharmacokinetics to be characterized using the above techniques. Therefore the pharmacokinetic characteristics of these materials were determined following iodination.
The labeled rt-PA was always coinjected with 1 mg/kg of unmodified rt-PA. The rt-PA with high mannose oligosaccharide structures at all glycosylation sites, produced in the CHO 15B cell line, was also included in this experiment.

For data set [5] the following is noted: clinical trials; cited from earlier work.
A further data set has as its system liver. Conditions: in vivo; cited from earlier work.
A short description of data set [6]: Pharmacokinetics of unlabeled rt-PA in rabbits, immunoreactive t-PA by sandwich ELISA, i.v. bolus. Type of data set: in vivo. Conditions: for Microconstant K10: elimination from central compartment; for Microconstant K10 / Microconstant K12 / Microconstant K21: Table 3; for Microconstant K12 / Microconstant K21: equilibration with peripheral compartment. Here is the method: as §1, §2
The data for Table 2 were fit to a model with direct elimination from the central compartment (K10) and equilibration with a peripheral compartment (K12 and K21).
as §3
In general terms: ELISA stands for enzyme-linked immunosorbent assay.

The next data set relates to rat liver hepatocytes. Conditions: in vitro; cited from earlier work.
For data set [7] the following is noted: effect of PMSF titration of active site or coinjection of diisopropylfluorophosphate thrombin, asialoorosomucoid, macroalbumin or excess unlabeled t-PA; mice; cited from earlier work.
For data set [8] the following is noted: effect of monosaccharides, rats; cited from earlier work.
Data set [9] concerns rat liver endothelial cells. Particulars: cited from earlier work.
The conditions of data set [10]: glycosylated versus deglycosylated; cited from earlier work.
The test system of a further data set is clot. The data set can be described thus: In vitro clot lysis assay (Collen et al.), fibrinolytic activity. It counts as biochemical. From the text:
After reduction and carboxymethylation, 34.2 nmoles (expected number is 35) of carboxymethyl cysteine per nmole of rt-PA were recovered in the periodate-treated sample. […] However, with reduction and carboxymethylation,methionine recoveries increased to 3.3 and 2.8 nmoles for the periodate-treated and untreated materials respectively. […] There was no significant difference in recovery of the other amino acids between the periodate-treated and untreated rt-PA (data not shown). […] The specific activity of the periodate-treated PA was 91% that of the control rt-PA as measured by an in vitro clot lysis assay (Collen, D. et al., J. Clin. Path, 21:705-707 [1968]).

The mark [11] stands for this setting: TCA precipitable radioactivity, labeled, 3.4 μCi/kg, n=4, Table 4.
The mark [12] stands for this setting: labeled rt-PA 10 μCi/kg, coinjected with 1 mg/kg unmodified rt-PA, Table 5.
Where [13] appears, read: immunoreactive rt-PA (IR), unlabeled, 1 mg/kg, n=4, Table 4.
Setting [14] is: unlabeled rt-PA, i.v. bolus, doses control 1.0, ENDO 0.83, periodate […], n=5, Table 3.

Several values for one entry are separate records, joined by “and”; a condition that tells them apart may be missing. Equal values may be shown once. Read-outs that look alike come from different tables or passages of the source.

In the case of “transferrin: transferrin, serum glycoprotein, after removal of sialic acid”, the half-life change result in [1] was “no significant effect on half-life”.

On to “Control: wild type recombinant human tissue-type plasminogen activator (rt-PA)”, for which the “alpha phase half life” value in data set [2] is “about 2 min”. Besides, the “alpha phase half life” value in data set [3] is 4 min and 6 min. Besides, the “elimination of labeled versus unlabeled rt-PA” value in data set [4] (TCA precipitable counts versus immunoreactivity) is given as “cleared more slowly”. Further, in [4] (setting [11]), the “% AUCα” value is 62.1%, the “% AUCβ” value is 37.9%, the Cl was found to be 3.92 mL/min/kg and the “T1/2 α” value was found to be 30.3 min. Further, in [4] (setting [11]), the “T1/2 β” value was 3.36 min and the Vo was 0.0277 L/kg. Besides, in data set [4] (setting [12]), the “% AUCα” value is 52%, the “% AUCβ” value was 48%, the Cl was 5.72 mL/min/kg and the “T1/2 α” value is listed as 2.55 min. Moreover, in [4] (setting [12]), the “T1/2 β” value was found to be 14.9 min and the Vo turned out to be 0.0315 L/kg. In [5], the “effect on fibrinogen levels in the blood” value is reported as “minimal effects on fibrinogen levels in the blood” and the thrombolytic efficacy entry is given as “extremely effective thrombolytic agent”. Besides, the “site of uptake and metabolism” value with liver is “The liver is the most significant site of t-PA uptake and metabolism”. Besides, in [6] (unlabeled rt-PA), the “Microconstant K10” value is given as 227 min^-1 × 10^3, the “Microconstant K12” value is reported as 35 min^-1 × 10^3 and the “Microconstant K21” value was 42 min^-1 × 10^3. For the same substance, in [6] (setting [13]), the “% AUCα” value was found to be 81.5%, the “% AUCβ” value is recorded as 18.5%, the Cl was 5.51 mL/min/kg and the “T1/2 α” value was determined as 21.3 min. Besides, in data set [6] (setting [13]), the “T1/2 β” value is 3.05 min and the Vo worked out at 0.03 L/kg. Further, in data set [6] (setting [14]), the Cl stood at 9.57 mL/min/kg, the “T1/2 α” value was 2.61 min and the “T1/2 β” value turned out to be 19.6 min. Moreover, in the data set on rat liver hepatocytes, the binding affinity result is given as “bind with high affinity to rat liver hepatocytes”.

“melanoma-derived t-PA: t-PA isolated from melanoma cell line”: the elimination result in data set [7] is on record as “unaffected”. In addition, the clearance entry in data set [8] is listed as “unaffected by monosaccharides”. Moreover, the uptake result in data set [9] was “a pathway that could be inhibited by high mannose glycoproteins”.

For the substance “deglycosylated human tissue-type plasminogen activator: deglycosylated human tissue-type plasminogen activator (Larsen et al.)”, in data set [10], the “in vivo clearance rate” value was “not significantly different”.

In the case of urokinase, in data set [1], the half-life change entry is “extending the half-life”.

As to Periodate, in [4] (labeled), the “rate of clearance versus control” value was “smaller rates of clearance than the control rt-PA”; the “relative size of alpha and beta phase” value is “the dominant change in the elimination pattern of the Endo-H and Periodate treated rt-PA again appears to be in the relative size of the alpha and beta phase”. Further, in data set [4] (setting [12]), the “% AUCα” value was 32%, the “% AUCβ” value is reported as 68%, the Cl was found to be 2.74 mL/min/kg and the “T1/2 α” value was 3.30 min. Further, in data set [4] (setting [12]), the “T1/2 β” value is 30.3 min and the Vo was determined as 0.0326 L/kg. Further, the “specific activity relative to control rt-PA” value in the data set with clot (in vitro clot lysis assay, % of control rt-PA) was found to be 91%. The fibrinolytic activity result in the data set with clot (in vitro clot lysis, versus untreated control) is on record as “did not alter the activity of the rt-PA significantly”. The “elimination” value in data set [6] (FIG. 4, unlabeled) is “slow the elimination of rt-PA”. In data set [6] (unlabeled rt-PA), the “Microconstant K10” value worked out at 63 min^-1 × 10^3, the “Microconstant K12” value is on record as 72 min^-1 × 10^3 and the “Microconstant K21” value came to 54 min^-1 × 10^3. In data set [6] (unlabeled), the “Vo, difference versus control” value is recorded as “no significant differences”; the “fold slower rate of clearance than control rt-PA” value was 2.7 fold; the “t1/2 alpha, change versus control” value is reported as “significant increase”; the “t1/2 beta, difference versus control” value was “no significant differences”. For the same substance, in data set [6] (setting [14]), the Cl is 3.53 mL/min/kg, the “T1/2 α” value is 4.22 min and the “T1/2 β” value came to 37.5 min.
